Laboratory results published in publication PMC11349869.

B1: BCT1 CmpCD fusion (GN128) (Synechococcus elongatus PCC 7942 = FACHB-805) (protein)
chain 1: CGNPPSSSGGGTSSTTQPTAAGASDLEVKTIKLGYIPIFEAAPLIIGREKGFFAKYGLDVEVSKQASWAAARDNVILGSAGGGIDGGQWQMPMPALLTEGAISNGQKVPMYVLACLSTQGNGIAVSNQLKAQNLGLKLAPNRDFILNYPQTSGRKFKASYTFPNANQDFWIRYWFAAGGIDPDKDIELLTVPSAETLQNMRNGTIDCFSTGDPWPSRIAKDDIGYQAALTGQMWPYHPEEFLALRADWVDKHPKATLALLMGLMEAQQWCDQKANRAEMAKILSGRNFFNVPVSILQPILEGQIKVGADGKDLNNFDAGPLFWKSPRGSVSYPYKGLTLWFLVESIRWGFNKQVLPDIAAAQKLNDRVTREDLWQEAAKKLGVPAADIPTGSTRGTETFFDGITYNPDSPQAYLQSLKIKRA
chain 2: MVTARETRRNGSRPSGLKKWRQKLDGILLPLAGILGFLIIWQIFSSSGATRLPGPLSLFTEERTRELLLYPFLDRGGLDKGLFWQTIASLTRVAQGFSIAAIIGISVGILVGLNRQLNAMLDPLFQFLRMIAPLAWVPIALVAFQQNQPAAIFVIFITAVWPILINTAEGVRQIPQDYNNVARVLRMSKSKYLMKVVLPAALPYIFTGLRIAIGLSWLAIIAAEIVMSGIVGIGFFIWDAYQQNYVSDIILAVIYIGAVGLLLDRFVAWLQRWILRNM
B2: BCT1 CmpCD fusion with tags (GM319) (Synechococcus elongatus PCC 7942 = FACHB-805) (protein)
chain 1: B1 chain 1
chain 2: B1 chain 2

Substrate: O=C(O)O
Experiment: cells, lysate or membranes
Conditions: pH 7.5, 20 mM bis-tris propane-H2SO4, 0.5 mM glucose, 1 µM CaCl2, induced with 100 µM IPTG, labelled compound

Protein	Km [µM]
B1	120 ± 20
B2	170 ± 30
